Data as given in US20030039970, “Method for prognosing cancer and the proteins involved” (published 2003).

How the values were obtained:
TRAITS (TID-1/U19) [1] = target: T1, TRAITS (TID-1/U19) (Rattus norvegicus, UniProt Q811X5 SEQ:1-262); assay: EMSA; complex competed by 5x, 25x, 125x cold T-wt; poly[dI-dC] present; conditions: tags: GST fusion (pGEX-2T, E. coli); label: 32P 5' end
Description: (§1) The binding of GST-TRAITS fusion protein to labeled T-box containing DNA forms a DNA-protein complex (C), which can be competed in the presence of indicated fold (5×, 25×, or 125×) molar excess of cold T-wt but not by cold T-mut (ACTgTA). A non-specific complex (*) in the presence of GST-TRAITS was also formed in the presence of GST only. Labeled free DNA (F) was also indicated. […] NIH3T3 cells were transiently transfected with empty vector (PM) or vectors expressing the full-length rat TRAITS (residues 1-262 of SEQ ID NO: 14), its N-terminal (residues 1-113 of SEQ ID NO: 14), or its C-terminal (residues 114-262 of SEQ ID NO: 14) plus pG5CAT reporter and pSV-β-gal for normalization. Assays were performed after 24 hours of transfection. The fold activation of CAT reporter is shown with S.E.M. Assays were performed in triplicate in two separate experiments.
(§2) T-wt: (5′-[…] GAAGCTTACGTCGCG-3′ SEQ ID NO: 33) and T-mut: (5′-[…] CGAAGCTTACGTCGCG-3′ SEQ ID NO: 34) were synthesized and amplified by PCR. T4 polynucleotide kinase (Promega) was used to label T-wt & T-mut by [γ-³²P] ATP (NEN). Recombinant GST-TRAITS fusion protein was incubated with […] poly [dI-dC] and EMSA was performed according to the protocol provided by Gel Shift Assay System (Promega).

TRAITS (TID-1/U19) [2] = target: T1, TRAITS (TID-1/U19); assay: competition; cold T-mut up to 125x molar excess does not compete for labeled T-wt complex; legend prints ACTgTA but sequence has ACGTTA; conditions: tags: GST fusion (pGEX-2T, E. coli)
Description: as §1, §2

T1 sequence (Q811X5 whole entry, the tested form may be a part): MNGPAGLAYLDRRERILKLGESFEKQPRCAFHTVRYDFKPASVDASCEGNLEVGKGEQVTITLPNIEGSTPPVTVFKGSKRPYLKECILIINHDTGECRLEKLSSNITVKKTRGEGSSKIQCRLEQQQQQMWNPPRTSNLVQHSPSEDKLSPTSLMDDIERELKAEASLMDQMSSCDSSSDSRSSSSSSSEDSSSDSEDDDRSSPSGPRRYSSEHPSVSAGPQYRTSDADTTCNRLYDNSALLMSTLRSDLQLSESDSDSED

B1: T-wt (T-box ACTTTA) (dsDNA)
DNA 1: GTCTGTCTGGATCCGAGGTGAGTACTGACTTTACACACGTCTTCCGAAGCTTACGTCGCG
DNA 2: CGCGACGTAAGCTTCGGAAGACGTGTGTAAAGTCAGTACTCACCTCGGATCCAGACAGAC
binding result (TRAITS (TID-1/U19) [1]): binds

B2: T-mut (dsDNA)
DNA 1: GTCTGTCTGGATCCGAGGTGAGTACTGACGTTACACACGTCTTCCGAAGCTTACGTCGCG
DNA 2: CGCGACGTAAGCTTCGGAAGACGTGTGTAACGTCAGTACTCACCTCGGATCCAGACAGAC
binding result (TRAITS (TID-1/U19) [2]): no binding
